{"source": "paper PMC6862768", "about": "(Nature, 2019)", "proteins": {"B1": {"name": "full-length chicken STING, cGAMP-bound (natural protein, UniProt E1C7U0 1-379, looked up)", "chain": "MPQDPSTRSSPARLLIPEPRAGRARHAACVLLAVCFVVLFLSGEPLAPIIRSVCTQLAALQLGVLLKGCCCLAEEIFHLHSRHHGSLWQVLCSCFPPRWYLALLLVGGSAYLDPPEDNGHSPRLALTLSCLCQLLVLALGLQKLSAVEVSELTESSKKNVAHGLAWSYYIGYLKVVLPRLKECMEELSRTNPMLRAHRDTWKLHILVPLGCDIWDDLEKADSNIQYLADLPETILTRAGIKRRVYKHSLYVIRDKDNKLRPCVLEFASPLQTLCAMSQDDCAAFSREQRLEQARLFYRSLRDILGSSKECAGLYRLIAYEEPAEPESHFLSGLILWHLQQQQREEYMVQEELPLGTSSVELSLQVSSSDLPQPLRSDCP"}}, "molecular_target": "the molecule itself", "test": "cryo-EM structure", "data": [{"protein": "B1", "values": [{"measurement": "stoichiometry N", "result": 2}]}]}
